Laboratory results as given in patent US20240417453A1 (ANWITA BIOSCIENCES, published 2024).
Changes are numbered by the printed parent chain. In names and notes the source's numbering stands.

T1: human IL-2Rβ (CD122) (human, UniProt P14784 27-239)
T1 construct: also called hIL-2Rβ
T1 sequence: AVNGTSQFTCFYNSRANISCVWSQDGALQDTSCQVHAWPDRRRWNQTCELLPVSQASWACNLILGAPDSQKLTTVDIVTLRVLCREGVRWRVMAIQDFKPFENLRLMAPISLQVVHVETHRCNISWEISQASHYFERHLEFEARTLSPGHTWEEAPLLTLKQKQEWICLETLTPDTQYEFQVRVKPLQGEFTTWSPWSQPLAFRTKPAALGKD

T2: human IL-2Rα (CD25) (human, UniProt P01589 22-240, limits assumed)
T2 construct: also called hIL-2Rα
T2 sequence: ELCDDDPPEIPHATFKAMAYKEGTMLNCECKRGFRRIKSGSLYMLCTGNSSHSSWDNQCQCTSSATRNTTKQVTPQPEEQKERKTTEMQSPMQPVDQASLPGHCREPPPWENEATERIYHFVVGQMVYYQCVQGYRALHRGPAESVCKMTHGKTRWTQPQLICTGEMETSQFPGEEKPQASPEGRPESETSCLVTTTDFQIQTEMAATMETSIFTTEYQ

B1: Anti-HSA-IL-2 A2 (IL-2-IL15 chimera 12) (other)
chain: QVQLVESGGGVVQPGGSLRLSCAASGFAFRGFGMSWVRQAPGKGLEWVSSINNGGSDTYYADSVKGRFTISRDNSKNTLYLQMNSLRAEDTAVYYCAIGGPGASPSGQGTQVTVSSGGGGSGGGGSGGGGSAPTSSSTKKTQLQLKHLLLDLQMILNGIQSMHIDATTFKFYMPKKATELKHLQCLEEELKPLEEVLNLAQSKNFHLRPRDLISNINVIVLELKGSETTFMCEYADETATIVEFLNRWITFSQSIISTLT
notes: E15K, C125S); Produced in CHO cells; also called anti-HSA-hIL-2 fusion protein A2
B2: Anti-HSA-IL-2 A15 (IL-2-IL15 chimera 12) (other)
chain: B1 chain with G117A, G118S, G119T, G120K, S121G
notes: Produced in CHO cells; also called anti-HSA-hIL-2 fusion protein A15
B3: Anti-HSA-IL-2 A1 (IL-2-IL15 chimera 7) (other)
chain: B1 chain with H163E
notes: E15K, C125S); Produced in CHO cells; also called anti-HSA-hIL-2 fusion protein A1
B4: Anti-HSA-IL-2 A17 (IL-2-IL15 chimera 12) (other)
chain: EVQLVESGGGLVQPGGSLRLSCAASGSTWSINTLAWYRQAPGKQRDLVARISSGGSTYYADSVKGRFTISRDNSKNTLYLQMNSLRAEDTAVYYCYAQSTWYPPSWGQGTLVTVSSASTKGGGGGSGGGGSAPTSSSTKKTQLQLKHLLLDLQMILNGIQSMHIDATTFKFYMPKKATELKHLQCLEEELKPLEEVLNLAQSKNFHLRPRDLISNINVIVLELKGSETTFMCEYADETATIVEFLNRWITFSQSIISTLT
notes: Produced in CHO cells; also called anti-HSA-hIL-2 fusion protein A17
B5: Anti-HSA-IL-2 A3 (IL-2-IL15 chimera 7) (other)
chain: B4 chain with A117G, S118G, T119G, K120G, G121S, H163E
notes: Produced in CHO cells; also called anti-HSA-hIL-2 fusion protein A3
B6: Anti-HSA-IL-2 A4 (IL-2-IL15 chimera 12) (other)
chain: B4 chain with A117G, S118G, T119G, K120G, G121S
notes: Produced in CHO cells; also called anti-HSA-hIL-2 fusion protein A4

Biological target: T1, human IL-2Rβ (CD122)
Test: BLI (OCTET RED96), receptor loaded on biosensor, global fitting
Description: (§1) OCTET® RED96 was used to characterize the interactions of anti-HSA-hIL-2 fusion proteins with human IL-2Rα (CD25) and IL-2Rβ (CD122). Briefly, hIL-2Rα and hIL-2Rβ were each loaded onto a biosensor. Each biosensor was then dipped into a solution containing an anti-HSA-hIL-2 fusion protein at 10 to 2,000 nM. Primary experimental data was analyzed with global fitting to determine a binding affinity (Kd).

Kd	Binder
139 nM	B1
94 nM	B2
55 nM	B3

Biological target: T2, human IL-2Rα (CD25)
Test: BLI (OCTET RED96), receptor loaded on biosensor, fusion protein in solution
Description: as §1

binding result	Binder
no binding (tested: 10 to 2,000 nM)	B2
no binding (tested: 10 to 2,000 nM)	B3
no binding (tested: 10 to 2,000 nM)	B4
no binding (tested: 10 to 2,000 nM)	B5

Biological target: T2, human IL-2Rα (CD25)
Test: BLI (OCTET RED96), hIL-2Rα loaded on the biosensor, fusion protein in solution at 33.3, 100 and 300 nM
Description: as §1

binding result	Binder
no binding (tested: 300 nM)	B1
no binding (tested: 300 nM)	B6
